According to PMC9392796, “A mannose-sensing AraC-type transcriptional activator regulates cell–cell aggregation of Vibrio cholerae” (NPJ Biofilms and Microbiomes, 2022):

Legend:
ManR (VC1825) [1] = target: T1, ManR (VC1825) (Vibrio cholerae, UniProt Q9KR22); conditions: 50 mM HEPES-NaOH pH 8.0, 500 mM NaCl, 10% glycerol, 1 mM TCEP, 0.5 mg/ml BSA, 0.05% Tween 20, 23 °C; NT-647-labelled protein 2 nM; effector (co-activator)
T1 construct: gene VC_1825

[2] = target: ManR (VC1825), AraC-type transcriptional regulator of Vibrio cholerae (Vibrio cholerae N16961); assay: not stated; Supplementary Fig. 3; method and conditions not shown
ManR (VC1825) [3] = target: ManR (VC1825) (Vibrio cholerae N16961, UniProt Q9KR22 1-279); assay: EMSA; one complex; conditions: protein: recombinant; chain copies: 2; blunt

O=P(O)(O)OC[C@H]1OC(O)[C@@H](O)[C@@H](O)[C@@H]1O (some centres unmarked) [M6P, mannose 6-phosphate]
Kd (ManR (VC1825) [1]): ~0.152 µM

ManR (VC1825), AraC-type transcriptional regulator of Vibrio cholerae (natural protein)
stoichiometry N [2]: 2

O=P(O)(O)OCC1(O)O[C@H](CO)[C@@H](O)[C@@H]1O (some centres unmarked) [F1P, fructose 1-phosphate]
Kd (ManR (VC1825) [1]): ~411 µM

B1: MB1 WT (dsDNA)
DNA 1: AGACAGAATGATACAATAATCCAGTTTTAACACCAATTC
DNA 2: GAATTGGTGTTAAAACTGGATTATTGTATCATTCTGTCT
binding result (ManR (VC1825) [3]): binds

B2: MB2 WT (dsDNA)
DNA 1: CAAACCAATAGAGTTACAATCCTCTAGTGAATGTTTTAT
DNA 2: ATAAAACATTCACTAGAGGATTGTAACTCTATTGGTTTG
binding result (ManR (VC1825) [3]): binds
